Experimental data: US10941182 (Amgen, dated 2021)
Starred links: 1 amine or outer side, 2 acyl side, 3 side chain; linkers in the order of their positions; H or OH if unused. Non-standard residues stand in square brackets, D forms with d. Primed or numbered codes have the meaning given here. *: point of attachment. AC4Abu = α-carboxy-4-aminobutyric acid, O=C(C(CCN[*:1])C(=O)[*:3])[*:2]; Oic = O=C(O)[C@@H]1C[C@@H]2CCCC[C@@H]2N1; Phe(4-Cl) = N[C@@H](Cc1ccc(Cl)cc1)C(=O)O; γGlu = O=C(O)[C@H](CCC(=O)[*:2])N[*:1]; 2Nal = N[C@@H](Cc1ccc2ccccc2c1)C(=O)O; NMeR = CN[C@@H](CCCNC(=N)N)C(=O)O; Tridecanoyl = CCCCCCCCCCCCC(=O)*; hArg = N=C(N)NCCCC[C@H](N)C(=O)O; Cha = N[C@@H](CC1CCCCC1)C(=O)O; αMeL = CC(C)C[C@](C)(N)C(=O)O; αMeP = C[C@@]1(C(=O)O)CCCN1; β3hP = O=C(O)C[C@@H]1CCCN1; Nle = CCCC[C@H](N)C(=O)O; Pip′ = not defined here; AEEA = NCCOCCOCC(=O)O; Aib = CC(C)(N)C(=O)O; BLeu = β-leucine

T1: rat APJ receptor (rat, UniProt Q9JHG3 1-377)
T1 sequence (looked up): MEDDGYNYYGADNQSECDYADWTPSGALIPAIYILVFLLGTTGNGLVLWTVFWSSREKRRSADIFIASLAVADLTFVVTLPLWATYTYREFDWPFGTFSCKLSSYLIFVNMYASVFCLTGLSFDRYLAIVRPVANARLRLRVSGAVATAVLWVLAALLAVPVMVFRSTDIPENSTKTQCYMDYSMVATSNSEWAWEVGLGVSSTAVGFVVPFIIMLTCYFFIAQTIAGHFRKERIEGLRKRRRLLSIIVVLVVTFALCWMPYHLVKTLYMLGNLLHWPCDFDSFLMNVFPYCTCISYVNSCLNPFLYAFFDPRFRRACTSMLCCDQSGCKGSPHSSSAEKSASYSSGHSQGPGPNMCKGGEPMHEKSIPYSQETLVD

T2: human APJ receptor (human, UniProt P35414 1-380)
T2 sequence (looked up): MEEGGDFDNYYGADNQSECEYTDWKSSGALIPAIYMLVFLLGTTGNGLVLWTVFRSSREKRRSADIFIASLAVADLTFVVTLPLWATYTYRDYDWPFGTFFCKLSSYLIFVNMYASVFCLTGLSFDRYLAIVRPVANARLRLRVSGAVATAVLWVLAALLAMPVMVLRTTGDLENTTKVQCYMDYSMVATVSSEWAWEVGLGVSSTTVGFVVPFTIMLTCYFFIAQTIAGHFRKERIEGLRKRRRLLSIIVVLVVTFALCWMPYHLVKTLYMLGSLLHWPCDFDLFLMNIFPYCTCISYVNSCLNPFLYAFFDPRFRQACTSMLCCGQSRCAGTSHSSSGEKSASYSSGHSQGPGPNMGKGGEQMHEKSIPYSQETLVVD

B1: Apelin polypeptide SEQ ID NO: 396 (peptide)
peptide: Tridecanoyl-[AC4Abu][AEEA][AEEA]QR[NMeR][αMeL]SHKG[Oic][Nle]P[Phe(4-Cl)]-OH
SMILES: CCCCCCCCCCCCC(=O)NCCC(C(=O)O)C(=O)NCCOCCOCC(=O)NCCOCCOCC(=O)N[C@@H](CCC(N)=O)C(=O)N[C@@H](CCCNC(=N)N)C(=O)N(C)[C@@H](CCCNC(=N)N)C(=O)N[C@@](C)(CC(C)C)C(=O)N[C@@H](CO)C(=O)N[C@@H](Cc1c[nH]cn1)C(=O)N[C@@H](CCCCN)C(=O)NCC(=O)N1[C@H](C(=O)N[C@@H](CCCC)C(=O)N2CCC[C@H]2C(=O)N[C@@H](Cc2ccc(Cl)cc2)C(=O)O)C[C@@H]2CCCC[C@@H]21
B2: Apelin polypeptide SEQ ID NO: 476 (peptide)
peptide: Tridecanoyl-[γGlu][AEEA][AEEA]QRE[NMeR]LSHKGP[Nle]P[Phe(4-Cl)]-OH
SMILES: CCCCCCCCCCCCC(=O)N[C@@H](CCC(=O)NCCOCCOCC(=O)NCCOCCOCC(=O)N[C@@H](CCC(N)=O)C(=O)N[C@@H](CCCNC(=N)N)C(=O)N[C@@H](CCC(=O)O)C(=O)N(C)[C@@H](CCCNC(=N)N)C(=O)N[C@@H](CC(C)C)C(=O)N[C@@H](CO)C(=O)N[C@@H](Cc1c[nH]cn1)C(=O)N[C@@H](CCCCN)C(=O)NCC(=O)N1CCC[C@H]1C(=O)N[C@@H](CCCC)C(=O)N1CCC[C@H]1C(=O)N[C@@H](Cc1ccc(Cl)cc1)C(=O)O)C(=O)O
B3: Apelin polypeptide SEQ ID NO: 516 (peptide)
peptide: Tridecanoyl-[γGlu][AEEA][AEEA][dQ]R[β3hP][NMeR][Cha]SHKG[Oic][Nle][Aib][Phe(4-Cl)]-OH
SMILES: CCCCCCCCCCCCC(=O)N[C@@H](CCC(=O)NCCOCCOCC(=O)NCCOCCOCC(=O)N[C@H](CCC(N)=O)C(=O)N[C@@H](CCCNC(=N)N)C(=O)N1CCC[C@H]1CC(=O)N(C)[C@@H](CCCNC(=N)N)C(=O)N[C@@H](CC1CCCCC1)C(=O)N[C@@H](CO)C(=O)N[C@@H](Cc1c[nH]cn1)C(=O)N[C@@H](CCCCN)C(=O)NCC(=O)N1[C@H](C(=O)N[C@@H](CCCC)C(=O)NC(C)(C)C(=O)N[C@@H](Cc2ccc(Cl)cc2)C(=O)O)C[C@@H]2CCCC[C@@H]21)C(=O)O
B4: Apelin polypeptide SEQ ID NO: 404 (peptide)
peptide: Tridecanoyl-[AC4Abu][AEEA][AEEA]QRP[hArg][αMeL]SHKGP[Nle]P[2Nal]-OH
SMILES: CCCCCCCCCCCCC(=O)NCCC(C(=O)O)C(=O)NCCOCCOCC(=O)NCCOCCOCC(=O)N[C@@H](CCC(N)=O)C(=O)N[C@@H](CCCNC(=N)N)C(=O)N1CCC[C@H]1C(=O)N[C@@H](CCCCNC(=N)N)C(=O)N[C@@](C)(CC(C)C)C(=O)N[C@@H](CO)C(=O)N[C@@H](Cc1c[nH]cn1)C(=O)N[C@@H](CCCCN)C(=O)NCC(=O)N1CCC[C@H]1C(=O)N[C@@H](CCCC)C(=O)N1CCC[C@H]1C(=O)N[C@@H](Cc1ccc2ccccc2c1)C(=O)O
B5: Apelin polypeptide SEQ ID NO: 553 (peptide)
peptide: Tridecanoyl-[γGlu][AEEA][AEEA][dQ]R[β3hP][NMeR][αMeL]SHKG[Oic][Nle][αMeP][Phe(4-Cl)]-OH
SMILES: CCCCCCCCCCCCC(=O)N[C@@H](CCC(=O)NCCOCCOCC(=O)NCCOCCOCC(=O)N[C@H](CCC(N)=O)C(=O)N[C@@H](CCCNC(=N)N)C(=O)N1CCC[C@H]1CC(=O)N(C)[C@@H](CCCNC(=N)N)C(=O)N[C@@](C)(CC(C)C)C(=O)N[C@@H](CO)C(=O)N[C@@H](Cc1c[nH]cn1)C(=O)N[C@@H](CCCCN)C(=O)NCC(=O)N1[C@H](C(=O)N[C@@H](CCCC)C(=O)N2CCC[C@@]2(C)C(=O)N[C@@H](Cc2ccc(Cl)cc2)C(=O)O)C[C@@H]2CCCC[C@@H]21)C(=O)O
B6: Apelin polypeptide SEQ ID NO: 360 (peptide)
peptide: Tridecanoyl-[γGlu][AEEA][AEEA]QRP[hArg][αMeL]SHKG[Oic][Nle]P[Phe(4-Cl)]-OH
SMILES: CCCCCCCCCCCCC(=O)N[C@@H](CCC(=O)NCCOCCOCC(=O)NCCOCCOCC(=O)N[C@@H](CCC(N)=O)C(=O)N[C@@H](CCCNC(=N)N)C(=O)N1CCC[C@H]1C(=O)N[C@@H](CCCCNC(=N)N)C(=O)N[C@@](C)(CC(C)C)C(=O)N[C@@H](CO)C(=O)N[C@@H](Cc1c[nH]cn1)C(=O)N[C@@H](CCCCN)C(=O)NCC(=O)N1[C@H](C(=O)N[C@@H](CCCC)C(=O)N2CCC[C@H]2C(=O)N[C@@H](Cc2ccc(Cl)cc2)C(=O)O)C[C@@H]2CCCC[C@@H]21)C(=O)O
B7: Apelin polypeptide SEQ ID NO: 446 (peptide)
peptide: Tridecanoyl-[γGlu][AEEA][AEEA]QR[NMeR][Cha]SHKG[Oic][Nle]P[Phe(4-Cl)]-OH
SMILES: CCCCCCCCCCCCC(=O)N[C@@H](CCC(=O)NCCOCCOCC(=O)NCCOCCOCC(=O)N[C@@H](CCC(N)=O)C(=O)N[C@@H](CCCNC(=N)N)C(=O)N(C)[C@@H](CCCNC(=N)N)C(=O)N[C@@H](CC1CCCCC1)C(=O)N[C@@H](CO)C(=O)N[C@@H](Cc1c[nH]cn1)C(=O)N[C@@H](CCCCN)C(=O)NCC(=O)N1[C@H](C(=O)N[C@@H](CCCC)C(=O)N2CCC[C@H]2C(=O)N[C@@H](Cc2ccc(Cl)cc2)C(=O)O)C[C@@H]2CCCC[C@@H]21)C(=O)O

Biological target: T1, rat APJ receptor
Test: cell-based or functional assay

| Binder | EC50 Rat APJ Receptor (GTPγS assay) |
| --- | --- |
| Tridecanoyl-[γGlu][AEEA][AEEA][dQ]R[Pip′][NMeR][Cha]SHKG[Oic][Nle][Aib][Phe(4-Cl)]-OH [Apelin polypeptide SEQ ID NO: 517] | 3.22 nM |
| B1 | 1.14 nM |
| Tridecanoyl-[γGlu][AEEA][AEEA]QR[NMeR][BLeu]SHKG[Oic][Nle]P[Phe(4-Cl)]-OH [Apelin polypeptide SEQ ID NO: 447] | 14.8 nM |
| Tridecanoyl-[γGlu][AEEA][AEEA][dQ]R[αMeP][hArg][BLeu]SHKG[Oic][Nle][β3hP][Phe(4-Cl)]-OH [Apelin polypeptide SEQ ID NO: 556] | 69.1 nM |
| Tridecanoyl-[γGlu][AEEA][AEEA][dQ]R[αMeP][Nle][BLeu]SHKG[Oic][Nle][αMeP][Phe(4-Cl)]-OH [Apelin polypeptide SEQ ID NO: 523] | 71.9 nM |
| B2 | 0.873 nM |
| Tridecanoyl-[γGlu][AEEA][AEEA]QR[Pip′][NMeR][Cha]SHKG[Oic][Nle]P[Phe(4-Cl)]-OH [Apelin polypeptide SEQ ID NO: 440] | 4.26 nM |
| B3 | 2.02 nM |
| Tridecanoyl-[γGlu][AEEA][AEEA][dQ]R[β3hP][hArg][BLeu]SHKG[Oic][Nle][Aib][Phe(4-Cl)]-OH [Apelin polypeptide SEQ ID NO: 522] | 6.77 nM |
| B4 | 0.361 nM |
| B5 | 2.01 nM |
| Tridecanoyl-[γGlu][AEEA][AEEA][dQ]R[αMeP][hArg][BLeu]SHKG[Oic][Nle][Phe(4-Cl)]-OH [Apelin polypeptide SEQ ID NO: 519] | 44.7 nM |
| Tridecanoyl-[γGlu][AEEA][AEEA][dQ]R[Pip′][hArg][BLeu]SHKG[Oic][Nle][Aib][Phe(4-Cl)]-OH [Apelin polypeptide SEQ ID NO: 521] | 3.21 nM |
| B6 | 0.0827 nM |
| Tridecanoyl-[γGlu][AEEA][AEEA][dQ]RP[hArg][BLeu]SHKG[Oic][Nle]P[Phe(4-Cl)]-OH [Apelin polypeptide SEQ ID NO: 378] | 0.411 nM |
| B7 | 1.9 nM |

Biological target: T2, human APJ receptor
Test: cell-based or functional assay

| Binder | EC50 Human APJ Receptor (GTPγS assay) |
| --- | --- |
| Tridecanoyl-[γGlu][AEEA][AEEA][dQ]R[Pip′][NMeR][Cha]SHKG[Oic][Nle][Aib][Phe(4-Cl)]-OH [Apelin polypeptide SEQ ID NO: 517] | 0.62 nM |
| B1 | 0.977 nM |
| Tridecanoyl-[γGlu][AEEA][AEEA]QR[NMeR][BLeu]SHKG[Oic][Nle]P[Phe(4-Cl)]-OH [Apelin polypeptide SEQ ID NO: 447] | 9.66 nM |
| Tridecanoyl-[γGlu][AEEA][AEEA][dQ]R[αMeP][hArg][BLeu]SHKG[Oic][Nle][β3hP][Phe(4-Cl)]-OH [Apelin polypeptide SEQ ID NO: 556] | 18 nM |
| Tridecanoyl-[γGlu][AEEA][AEEA][dQ]R[αMeP][Nle][BLeu]SHKG[Oic][Nle][αMeP][Phe(4-Cl)]-OH [Apelin polypeptide SEQ ID NO: 523] | 25.6 nM |
| B2 | 0.346 nM |
| Tridecanoyl-[γGlu][AEEA][AEEA]QR[Pip′][NMeR][Cha]SHKG[Oic][Nle]P[Phe(4-Cl)]-OH [Apelin polypeptide SEQ ID NO: 440] | 3.48 nM |
| B3 | 0.557 nM |
| Tridecanoyl-[γGlu][AEEA][AEEA][dQ]R[β3hP][hArg][BLeu]SHKG[Oic][Nle][Aib][Phe(4-Cl)]-OH [Apelin polypeptide SEQ ID NO: 522] | 0.523 nM |
| B4 | 0.298 nM |
| B5 | 2.23 nM |
| Tridecanoyl-[γGlu][AEEA][AEEA][dQ]R[αMeP][hArg][BLeu]SHKG[Oic][Nle][Phe(4-Cl)]-OH [Apelin polypeptide SEQ ID NO: 519] | 9.74 nM |
| Tridecanoyl-[γGlu][AEEA][AEEA][dQ]R[Pip′][hArg][BLeu]SHKG[Oic][Nle][Aib][Phe(4-Cl)]-OH [Apelin polypeptide SEQ ID NO: 521] | 1.03 nM |
| B6 | 0.0519 nM |
| Tridecanoyl-[γGlu][AEEA][AEEA][dQ]RP[hArg][BLeu]SHKG[Oic][Nle]P[Phe(4-Cl)]-OH [Apelin polypeptide SEQ ID NO: 378] | 0.26 nM |
| B7 | 1.11 nM |
